From US20200155571A1, “Topically Active Steroids for Use in Radiation and Chemotherapeutics Injury” (Soligenix, Inc., priority 2008, published 2020)

Experiments:
[1] = system: dogs given high dose total body irradiation (TBI); experiment: Survival of dogs after high dose TBI (GI radiation syndrome) with autologous marrow and supportive care; format: in vivo, dog; conditions: TBI dose giving >80% lethality; monitored up to 30 days; KGF 100 μg/kg/day iv or BDP 4 mg/day from 2 hours after TBI until GI recovery
Description: The dog is a particularly suitable animal model for studying radiations damage to epithelial tissue. […] To evaluate the response to TBI given at the high dose rate of 0.4 Gy/min or 0.7 Gy/min, treatment groups were given single-fraction 6, 7, 8 or 10 Gy TBI and received previously cryopreserved autologous marrow infusion upon completion of the TBI and standard supportive care. At doses of TBI below 8 Gy, all dogs survived. After 8 Gy TBI, 5 of 9 dogs died and after 10 Gy TBI, 9 of 9 dogs died from GI radiation syndrome. All deaths occurred between days 4 to day 6 after 10 Gy TBI. All deaths were attributable due to GI radiation toxicity with severe gut hemorrhage and intestinal crypt damage, as well as denudation of gut epithelium and focal necrosis in the intestines. Despite antibiotic treatment, blood cultures obtained near the time of death were positive for gram negative organisms in 4 dogs, consistent with entry of pathogens through the GI tract. […]
Dogs were monitored for survival up to 30 days after initiation of TBI (primary endpoint of the experiment). […] Dogs were also followed with daily CBCs until recovery and assessed for immune function recovery. […]

[2] = rats, cited from earlier work
[3] = cited from earlier work
[4] = 17-BMP after BDP administration, estimated; cited from earlier work
[5] = biological target: T1, glucocorticoid receptor (Homo sapiens, UniProt P04150); conditions: as fraction of the binding affinity of dexamethasone; cited from earlier work
T1 sequence (P04150 1-777): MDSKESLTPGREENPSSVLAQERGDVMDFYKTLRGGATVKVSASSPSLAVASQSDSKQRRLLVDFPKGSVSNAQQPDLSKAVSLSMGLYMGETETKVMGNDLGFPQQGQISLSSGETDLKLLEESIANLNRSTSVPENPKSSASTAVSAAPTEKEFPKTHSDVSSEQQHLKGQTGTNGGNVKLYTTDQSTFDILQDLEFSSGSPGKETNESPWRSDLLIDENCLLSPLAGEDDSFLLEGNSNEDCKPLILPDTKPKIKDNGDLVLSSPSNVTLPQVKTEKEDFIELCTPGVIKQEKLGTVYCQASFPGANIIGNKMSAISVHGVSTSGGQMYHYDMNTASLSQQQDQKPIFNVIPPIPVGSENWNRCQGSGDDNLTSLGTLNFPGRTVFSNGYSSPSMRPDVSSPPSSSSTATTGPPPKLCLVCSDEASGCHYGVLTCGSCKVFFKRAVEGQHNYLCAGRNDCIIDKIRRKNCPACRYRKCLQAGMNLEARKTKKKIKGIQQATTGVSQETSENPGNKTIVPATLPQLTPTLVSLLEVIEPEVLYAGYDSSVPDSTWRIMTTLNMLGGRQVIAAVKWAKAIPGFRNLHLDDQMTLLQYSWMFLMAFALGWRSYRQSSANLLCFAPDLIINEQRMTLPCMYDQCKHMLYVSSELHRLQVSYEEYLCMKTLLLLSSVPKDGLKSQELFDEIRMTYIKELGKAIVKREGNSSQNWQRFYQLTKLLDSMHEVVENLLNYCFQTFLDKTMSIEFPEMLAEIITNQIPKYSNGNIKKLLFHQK

[6] = system: non-irradiated dogs; experiment: rhKGF in non-irradiated dogs, necropsy of gut; format: in vivo, dog; conditions: rhKGF 100 μg/kg/day for 14 and 21 days
Protocol: Three non-irradiated dogs were given rhKGF 100 μg/kg/day for 7, 14 and 21 days, respectively. Twenty-four hours after the last dose of KGF, dogs were euthanized and underwent complete necropsy.

[7] = system: oral mucositis after high-dose radiation; conditions: cited from earlier work
[8] = system: dogs given total body irradiation (TBI); experiment: Survival and hematopoietic recovery of dogs after TBI with cytokine treatment; format: in vivo, dog
Protocol: Supportive care consisted of the following: (a) intravenous antibiotics, ampicillin and amikacin and oral nonreabsorbable polymixin/neomycin administered without change in drug regimen until recovery of absolute neutrophil count (ANC)>1000/μL; (b) transfusions with irradiated whole blood (50 mL blood per transfusion) for platelet counts below 10,000/μL; and (c) subcutaneous fluids 20 ml/kg given daily for the first 5 days after TBI.
After TBI exposure, all dogs were treated with an oral fluoroquinolone, enrofloxacin. Core body temperature was measured at least twice daily. If fever developed or when ANC falls below <100/μL, dogs are empirically treated with the combination of intravenous third-generation cephalosporin (ceftazidime) and the aminoglycoside amikacin. Blood cultures are obtained when dogs develop fever and antibiotic treatment is adjusted based on blood culture results. If blood culture negative neutropenic fever persists for 48 hours, or if clinical condition objectively worsens, additional empiric antibiotic treatment with metronidazole and vancomycin is added. Although the new antibiotic regimen is more complicated compared with the historical treatment, it reflects improved broad spectrum coverage against gram negative, gram positive and anaerobic pathogens. Furthermore, blood transfusion support is more intensive now with larger volume of whole blood transfusion, based on body weight with 10-15 mL blood/kg/transfusion. The use of intravenous fluid support (10-30 mL/kg/day Lactated Ringers solution) is extended for at least 14 additional days until there is full recovery of oral food intake.
New supportive care measures have shown a significant improvement in survival after TBI. Following 4 Gy TBI (0.07 Gy/min, Varian Clinac 4/80 linear accelerator source), 4 of 4 dogs survived and recovered hematopoiesis with a median time to ANC and platelet recovery of 27 and 41 days, respectively. ANC recovery was defined as the first day of sustained neutrophil counts >500/μL and platelet recovery was defined as the first day of transfusion-independent sustained recovery of >40,000/μL. After 5 Gy TBI, 3 of 6 dogs survived with supportive care only. Deaths occurred at days 14, 15 and 21, respectively, after TBI and were due to neutropenic sepsis or pneumonia and not from the GI radiation syndrome. Among surviving dogs, the median time to ANC and platelet recovery was 29 and 44 days, respectively. After 6 Gy TBI, 5 of 6 dogs survived given supportive care only. One death occurred on day 22 due to neutropenic sepsis. The median time to ANC and platelet recovery was 34 and 74 days, respectively. After 7 Gy TBI and supportive care only, 5 of 6 dogs survived, with one death on day 22 due to neutropenic sepsis. […] As of Apr. 18, 2007, the remaining three dogs in this cohort remain transfusion-dependent at 66 to 95 days after TBI. […] Because of the improved survival of dogs after TBI given optimal supportive care in the current AI-066498 studies, we have not yet reached the 99% lethal dose of TBI threshold.
Although supportive care without cytokine support results in improved survival, cytokine treatment given after TBI aimed at recovery of the hematopoietic system also improves outcome and decreased the need for prolonged, intensive (and expensive) supportive care. Historical results in the dog model by our research group included studies which established that both recombinant canine (rc) and recombinant human (rh) G-CSF given after an otherwise lethal dose of 4 Gy TBI prevented death from radiation induced cytopenia. In the 1980's and early 1990's, after 4 Gy TBI and supportive care alone, only 1 of 28 dogs survived with recovery of hematopoiesis. In contrast, when G-CSF was given daily for 21 days after 4 Gy TBI, 8 of 10 dogs survived. […] These studies helped to establish the current clinical guidelines for the treatment of victims of radiation accidents. […]

## beclomethasone 17,21-dipropionate [BDP]
[1]
  survival after TBI: greater than 70%
[2]; intravenous administration of 3H-BDP
  half-life of unchanged BDP in plasma: 3 to 4 min
[2]
  presence in plasma following oral administration of 3H-BDP: not detected
[3]
  half-life in simulated intestinal fluid: 2.1 min

## CCC(=O)O[C@]1(C(=O)CO)[C@@H](C)C[C@H]2[C@@H]3CCC4=CC(=O)C=C[C@]4(C)[C@@]3(Cl)[C@@H](O)C[C@@]21C [17-BMP, 17-beclomethasone mono-propionate]
[2]
  presence in plasma following oral administration of 3H-BDP: found in the plasma
[4]
  absolute oral bioavailability: 21-41%
[3]
  half-life in simulated intestinal fluid: 720 min

## CCC(=O)OCC(=O)[C@@]1(O)[C@@H](C)C[C@H]2[C@@H]3CCC4=CC(=O)C=C[C@]4(C)[C@@]3(Cl)[C@@H](O)C[C@@]21C [21-BMP]
[5]
  glucocorticoid receptor binding affinity, in words: no apparent affinity

B1: KGF: keratinocyte growth factor, recombinant human; binds the KGF receptor on epithelial tissues (protein, UniProt P21781 32-194, looked up)
Fibroblast growth factor 7: CNDMTPEQMATNVNCSSPERHTRSYDYMEGGDIRVRRLFCRTQWYLRIDKRGKVKGTQEMKNNYNIMEIRTVAVGIVAIKGVESEFYLAMNKEGKLYAKKECNEDCNFKELILENHYNTYASAKWTHNGGEMFVALNQKGIPVRGKKTKKEQKTAHFLPMAIT
[1]
  survival after TBI: ≥ 70%
[6]
  effect on Peyer's patches in the ileum: dramatic increase in the size and cellularity of Peyer's patches
  effect on villi in the jejunum: dramatic increase in size of villi
[7]; rhKGF 60 μg/kg/day for 3 days prior to 12 Gy fractionated TBI and 3 days after autologous PBSC infusion, placebo 10.4 days, p<0.001
  duration of mucositis: 3.4 days
[7]; same trial, placebo 46%
  incidence of febrile neutropenia: 26%
[7]; same trial, placebo 4.6 days
  mean days of febrile neutropenia: 2.6 days

B2: G-CSF: cytokine granulocyte colony stimulating factor, recombinant canine or human (protein, UniProt P09919 31-207, looked up)
Granulocyte …: TPLGPASSLPQSFLLKCLEQVRKIQGDGAALQEKLVSECATYKLCHPEELVLLGHSLGIPWAPLSSCPSQALQLAGCLSQLHSGLFLYQGLLQALEGISPELGPTLDTLQLDVADFATTIWQQMEELGMAPALQPTQGAMPAFASAFQRRAGGVLVASHLQSFLEVSYRVLRHLAQP
[8]; 4 Gy TBI, G-CSF daily for 21 days, historical results, supportive care alone 1 of 28
  survival: 8 of 10
[8]; 5 Gy TBI, 10 μg/kg/day starting 2 hours after irradiation, new supportive care
  survival: 6 of 6
[8]; 5 Gy TBI, G-CSF, historical results
  survival: 3 of 10
[8]; 5 Gy TBI, ANC >500/μL
  median time to ANC recovery: 20 days
[8]; 5 Gy TBI, platelets >40,000/μL
  median time to platelet recovery: 44 days
[8]; 6 Gy TBI
  median time to ANC recovery: 26 days
  median time to platelet recovery: 61 days
[8]; 6 Gy TBI, G-CSF 10 μg/kg/day, FL 100 μg/kg/day
  survival: 5 of 6
